From patent US20170334995A1 (Boehringer Ingelheim, published 2017)
Where a chain is given by its changes, count along the chain named. Blank lines part the entries; values can stand above or below the binder they belong to.

Legend:
human LAG3 (ECD) = target: T1, human LAG3 (ECD) (human, UniProt P18627 23-450); assay: hybridoma screening
T1 construct: range 23-450; the screening reagent is called only 'human LAG3 (ECD)'; also called human LAG3 ECD protein
T1 sequence (looked up): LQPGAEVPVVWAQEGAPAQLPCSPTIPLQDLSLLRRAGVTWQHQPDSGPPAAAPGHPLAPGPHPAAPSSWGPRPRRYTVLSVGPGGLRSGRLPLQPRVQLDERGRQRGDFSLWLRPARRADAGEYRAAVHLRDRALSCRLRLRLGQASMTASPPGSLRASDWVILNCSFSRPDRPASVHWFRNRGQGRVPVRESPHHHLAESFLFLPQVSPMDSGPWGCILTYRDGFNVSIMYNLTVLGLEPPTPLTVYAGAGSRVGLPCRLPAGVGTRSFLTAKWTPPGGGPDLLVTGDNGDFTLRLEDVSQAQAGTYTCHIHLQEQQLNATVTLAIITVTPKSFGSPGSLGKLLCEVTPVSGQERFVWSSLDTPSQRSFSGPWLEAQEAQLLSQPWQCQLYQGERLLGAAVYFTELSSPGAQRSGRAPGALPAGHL

[1] = target: T2, human PD1 expressed on the surface of CHO cells (human, UniProt Q15116 25-288); assay: ligand blocking on PD1-expressing CHO cells, competitor biotin-PD-L1
T2 construct: whole, on cells; also called PD1 expressing CHO cells
T2 sequence (Q15116 25-288): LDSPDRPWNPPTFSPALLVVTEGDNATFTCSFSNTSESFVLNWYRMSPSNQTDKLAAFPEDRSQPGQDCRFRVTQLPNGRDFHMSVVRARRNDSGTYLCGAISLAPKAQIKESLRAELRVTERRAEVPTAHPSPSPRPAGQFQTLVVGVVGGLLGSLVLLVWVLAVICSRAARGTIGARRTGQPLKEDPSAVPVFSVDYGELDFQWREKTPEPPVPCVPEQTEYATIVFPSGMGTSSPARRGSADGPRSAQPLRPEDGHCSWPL
Procedure: (§1) The mixture was incubated for 1 hour at 37 degrees celsius. […] Percentage inhibition values were calculated in Excel and curve fitting was done with GraphPad Prism. Data points of the curve are mean values of triplicate measurements.

[2] = target: T2, human PD1 expressed on the surface of …; assay: ligand blocking on PD1-expressing CHO cells, competitor biotin-PD-L2
Procedure: as §1

[3] = target: T2, human PD1 expressed on the surface of …; assay: blocking assay on cells: biotin-labelled human PD-L2 binding to PD1-expressing CHO cells, Europium-streptavidin fluorescence, % inhibition against antibody concentration [D]
Procedure: as §1

human PD1 ECD = target: T3, human PD1 ECD (human, UniProt Q15116 21-170); assay: SPR (ProteOn XPR36), antibody captured on Protein A/G, PD1 ECD as analyte, 1:1 Langmuir fit
T3 construct: range 21-170; also called recombinant monomeric human PD1; recombinant human PD1
T3 sequence (Q15116 21-170 limits assumed, form in doubt): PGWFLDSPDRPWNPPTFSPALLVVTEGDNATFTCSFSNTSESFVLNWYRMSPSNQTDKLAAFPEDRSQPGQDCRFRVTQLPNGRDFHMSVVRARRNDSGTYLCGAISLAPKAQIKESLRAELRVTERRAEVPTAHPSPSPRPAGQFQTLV
Procedure: Binding affinities to recombinant monomeric human PD1 were measured by SPR using a ProteOn XPR36 instrument. […] Human PD1 ECD was injected over the captured antibodies for 600 sec at a flowrate of 30 ul/min and a dissociation for 1200 sec.

[4] = target: T2, human PD1 expressed on the surface of …; assay: blocking assay on cells: biotin-labelled human PD-L1 binding to PD1-expressing CHO cells, Europium-streptavidin fluorescence, % inhibition against antibody concentration [A]
Procedure: as §1

[5] = target: T2, human PD1 expressed on the surface of …; assay: blocking assay on cells: biotin-labelled human PD-L1 binding to PD1-expressing CHO cells, Europium-streptavidin fluorescence, % inhibition against antibody concentration [B]
Procedure: as §1

[6] = target: T2, human PD1 expressed on the surface of …; assay: blocking assay on cells: biotin-labelled human PD-L2 binding to PD1-expressing CHO cells, Europium-streptavidin fluorescence, % inhibition against antibody concentration [E]
Procedure: as §1

Human LAG3 ECD-Fc [7] = target: T4, Human LAG3 ECD-Fc (human, UniProt P18627 23-450); assay: SPR, antibody captured on Protein A/G, LAG3 ECD-Fc as analyte, 1:1 Langmuir fit
T4 construct: extracellular domain; 23-450 is stated only for the immunogen; also called recombinant human LAG3 extracellular domain fused to human Fc; hLAG3-hlgFc; not shown: Fc
T4 sequence (looked up): T1 sequence (looked up)

Human LAG3 ECD-Fc [8] = target: T4, Human LAG3 ECD-Fc; assay: blocking assay by FACS: LAG3 ECD-Fc pre-incubated with the antibody, then binding to MHC II on Raji cells detected with PE anti-human IgG, % inhibition against antibody concentration

binding result (human LAG3 (ECD)): binds
B1: 496G6 (antibody, V domains shown)
VH: QVTLKESGPGILQPSQTLSLTCSFSGFSLSTSDMGVGWIRQPSGKGLEWLAHIWWDDVKRYNPALKSRLTISKDTSSSQVFLMIASVDTADTATYFCARIEDYGVSYYFDYWGQGTTLTVSS
VL: DIVMTQSHKFMSTSVGDRVSFTCKASQDVNTAVAWYQQKPGQSPKLLIYSASYRYTGVPDRFTGSGSGTDFTFTISSVQAEDLALYYCQQHYSIPLTFGAGTKLELK
notes: Murine monoclonal antibody from a hybridoma; also called murine progenitor antibody 496G6; monoclonal antibody produced by 496G6

IC90 [1]: 1.68 nM
IC90 [2]: 1.95 nM
IC50 (read off the curve) [5]: ~0.8 nM
IC50 (read off the curve) [6]: ~1 nM
Kd (human PD1 ECD): 6 nM
B3: PD1-3 (antibody, human IgG4 S228P, kappa, V domains shown)
VH: EVMLVESGGGLVQPGGSLRLSCTASGFTFSKSAMSWVRQAPGKGLEWVAYISGGGGDTYYSSSVKGRFTISRDNAKNSLYLQMNSLRAEDTAVYYCARHSNVNYYAMDYWGQGTLVTVSS
VL: EIVLTQSPATLSLSPGERATMSCRASENIDVSGISFMNWYQQKPGQAPKLLIYVASNQGSGIPARFSGSGSGTDFTLTISRLEPEDFAVYYCQQSKEVPWTFGQGTKLEIKR
notes: Humanized derivative of murine 77E11; the HC is IgG4 (Pro), kappa light chain; also called anti-PD1-3; representative anti-PD1 antibody of the invention

IC90 [1]: 2.97 nM
IC90 [2]: 3.64 nM
IC50 (read off the curve) [3]: ~1 nM
Kd (human PD1 ECD): 61.8 nM
IC50 (read off the curve) [4]: ~1 nM
B4: PD1-2 (antibody, human IgG4 S228P, kappa, V domains shown)
VH: B3 VH with K31A, V102P
VL: B3 VL with V31T
notes: Humanized derivative of murine 77E11; the HC is IgG4 (Pro), kappa light chain; also called anti-PD1 antibody PD1-2

Further lines, the binder ahead of its results:

B2: PD1-1 (antibody, human IgG4 S228P, kappa, V domains shown)
VH: B3 VH with K31A
VL: B3 VL with V31T
notes: Humanized derivative of murine 77E11; the HC is IgG4 (Pro), kappa light chain; also called anti-PD1 antibody PD1-1
IC90 [1]: 2.12 nM
IC90 [2]: 2.09 nM
IC50 (read off the curve) [3]: ~1 nM
Kd (human PD1 ECD): 16.6 nM
IC50 (read off the curve) [4]: ~0.8 nM

B5: LAG3-4 (antibody, human IgG4 S228P, kappa, V domains shown)
VH: QVTLVESGGGVVQPGRSLRLSCAFSGFSLSTSDMGVGWIRQAPGKGLEWVAHIWWDDVKRYNPALKSRFTISRDNSKNTLYLQMNSLRAEDTATYFCARIEDYGVSYYFDYWGQGTTVTVSS
VL: DIVMTQSPSFLSASVGDRVTITCKASQDVSTAVAWYQQKPGKAPKLLIYSASYRYTGVPDRFSGSGSGTDFTLTISSLQPEDFATYYCQQHYSIPLTFGQGTKLEIKR
notes: Humanized derivative of murine 496G6, human IgG4 (Pro) format, kappa; also called anti-LAG3 antibody LAG3-4
Kd (Human LAG3 ECD-Fc [7]): 0.1 nM

B6: LAG3-2 (antibody, human IgG4 S228P, kappa, V domains shown)
VH: QVTLKESGPTLVKPTQTLTLTCSFSGFSLSTSDMGVGWIRQPPGKALEWLAHIWWDDVKRYNPALKSRLTITKDTSKNQVVLTMTNMDPVDTATYFCARIEDYGVSYYFDYWGQGTTVTVSS
VL: B5 VL with V3Q, I21F
notes: Humanized derivative of murine 496G6, human IgG4 (Pro) format, kappa; also called anti-LAG3 antibody LAG3-2
IC50 (read off the curve) (Human LAG3 ECD-Fc [8]): ~0.7 nM
Kd (Human LAG3 ECD-Fc [7]): 0.09 nM

B7: LAG3-3 (antibody, human IgG4 S228P, kappa, V domains shown)
VH: B5 VH with R19S, I39V, A42P, F96Y
VL: B5 VL with V3Q, Q100A
notes: Humanized derivative of murine 496G6, human IgG4 (Pro) format, kappa; also called anti-LAG3 antibody LAG3-3
IC50 (read off the curve) (Human LAG3 ECD-Fc [8]): ~0.8 nM
Kd (Human LAG3 ECD-Fc [7]): 0.12 nM

B8: LAG3-5 (antibody, human IgG4 S228P, kappa, V domains shown)
VH: B6 VH with E101V
VL: B5 VL with V3Q, T20S, T85V
notes: Humanized derivative of murine 496G6, human IgG4 (Pro) format, kappa; also called anti-LAG3 antibody LAG3-5
IC50 (read off the curve) (Human LAG3 ECD-Fc [8]): ~1 nM
Kd (Human LAG3 ECD-Fc [7]): 0.07 nM

B9: LAG3-1 (antibody, human IgG4 S228P, kappa, V domains shown)
VH: B5 VH with T94V
VL: B5 VL with V3Q, T20S
notes: Humanized derivative of murine 496G6, human IgG4 (Pro) format, kappa; also called representative anti-LAG3 antibody of the invention
IC50 (read off the curve) (Human LAG3 ECD-Fc [8]): ~1 nM
Kd (Human LAG3 ECD-Fc [7]): 0.125 nM
